Assay results published in patent publication US20080249606A1.

Biological target: endostatin incubated overnight with DXS500k (human) (UniProt P39060)
Test: ELISA, protein/DXS500k mixture immobilized on Greiner Microlon plate, tPA in 10 mM εACA, detection with antibody 374b

Sequence of tissue-type plasminogen activator (tPA, Actilyse, Boehringer-Ingelheim) (P00750 36-562 limits assumed): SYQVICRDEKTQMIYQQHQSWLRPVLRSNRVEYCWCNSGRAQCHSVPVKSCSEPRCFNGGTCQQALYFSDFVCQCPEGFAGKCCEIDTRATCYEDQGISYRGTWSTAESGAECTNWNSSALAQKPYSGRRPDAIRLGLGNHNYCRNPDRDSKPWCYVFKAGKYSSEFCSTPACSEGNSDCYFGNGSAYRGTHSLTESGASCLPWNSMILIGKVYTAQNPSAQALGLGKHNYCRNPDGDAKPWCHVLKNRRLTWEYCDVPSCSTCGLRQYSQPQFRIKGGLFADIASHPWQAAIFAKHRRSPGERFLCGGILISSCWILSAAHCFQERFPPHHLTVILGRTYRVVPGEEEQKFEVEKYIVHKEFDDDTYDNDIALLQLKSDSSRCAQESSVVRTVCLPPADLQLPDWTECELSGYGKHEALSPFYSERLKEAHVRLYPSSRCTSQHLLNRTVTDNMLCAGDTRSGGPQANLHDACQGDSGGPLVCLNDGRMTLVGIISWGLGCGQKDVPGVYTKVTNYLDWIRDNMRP
Sequence of endostatin incubated overnight with DXS500k (human) (P39060 1572-1754): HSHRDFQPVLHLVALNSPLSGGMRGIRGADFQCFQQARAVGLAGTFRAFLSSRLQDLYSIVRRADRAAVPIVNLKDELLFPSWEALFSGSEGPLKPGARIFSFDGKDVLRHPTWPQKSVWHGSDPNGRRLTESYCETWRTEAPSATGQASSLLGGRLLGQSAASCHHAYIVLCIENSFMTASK

factor of increase of tPA binding against the protein incubated with buffer only: 10.5 fold
Substance: tissue-type plasminogen activator (tPA, Actilyse, Boehringer-Ingelheim) (from UniProt P00750 36-562) (enzyme)
